Results: patent US20110104715A1 (published 2011)

B1: FLAG-tagged catalytic mutant caspase-6 (C163A) (enzyme, UniProt P55212 1-293, looked up)
chain: MSSASGLRRGHPAGGEENMTETDAFYKREMFDPAEKYKMDHRRRGIALIFNHERFFWHLTLPERRGTCADRDNLTRRFSDLGFEVKCFNDLKAEELLLKIHEVSTVSHADADCFVCVFLSHGEGNHIYAYDAKIEIQTLTGLFKGDKCHSLVGKPKIFIIQAARGNQHDVPVIPLDVVDNQTEKLDTNITEVDAASVYTLPAGADFLMCYSVAEGYYSHRETVNGSWYIQDLCEMLGKYGSSLEFTELLTLVNRKVSQRRVDFCKDPSAIGKKQVPCFASMLTKKLHFFPKSN
notes: FLAG tag present; also called C6
B2: FLAG-tagged catalytic mutant caspase-7 (C186A) (enzyme, UniProt P55210 1-303, looked up)
chain: MADDQGCIEEQGVEDSANEDSVDAKPDRSSFVPSLFSKKKKNVTMRSIKTTRDRVPTYQYNMNFEKLGKCIIINNKNFDKVTGMGVRNGTDKDAEALFKCFRSLGFDVIVYNDCSCAKMQDLLKKASEEDHTNAACFACILLSHGEENVIYGKDGVTPIKDLTAHFRGDRCKTLLEKPKLFFIQAARGTELDDGIQADSGPINDTDANPRYKIPVEADFLFAYSTVPGYYSWRSPGRGSWFVQALCSILEEHGKDLEIMQILTRVNDRVARHFESQSDDPHFHEKKQIPCVVSMLTKELYFSQ
notes: FLAG tag present; also called C7
B3: FLAG-tagged catalytic mutant caspase-8 (C360A) (enzyme, UniProt Q14790 1-479, looked up)
chain: MDFSRNLYDIGEQLDSEDLASLKFLSLDYIPQRKQEPIKDALMLFQRLQEKRMLEESNLSFLKELLFRINRLDLLITYLNTRKEEMERELQTPGRAQISAYRVMLYQISEEVSRSELRSFKFLLQEEISKCKLDDDMNLLDIFIEMEKRVILGEGKLDILKRVCAQINKSLLKIINDYEEFSKERSSSLEGSPDEFSNGEELCGVMTISDSPREQDSESQTLDKVYQMKSKPRGYCLIINNHNFAKAREKVPKLHSIRDRNGTHLDAGALTTTFEELHFEIKPHDDCTVEQIYEILKIYQLMDHSNMDCFICCILSHGDKGIIYGTDGQEAPIYELTSQFTGLKCPSLAGKPKVFFIQAAQGDNYQKGIPVETDSEEQPYLEMDLSSPQTRYIPDEADFLLGMATVNNCVSYRNPAEGTWYIQSLCQSLRERCPRGDDILTILTEVNYEVSNKDDKKNMGKQMPQPTFTLRKKLVFPSD
notes: Printed as 'caspase-S(C360A)', read as caspase-8; FLAG tag present; also called C8; caspase-S(C360A)
B4: FLAG-tagged catalytic mutant caspase-9 (C287A) (enzyme, UniProt P55211 1-416, looked up)
chain: MDEADRRLLRRCRLRLVEELQVDQLWDALLSRELFRPHMIEDIQRAGSGSRRDQARQLIIDLETRGSQALPLFISCLEDTGQDMLASFLRTNRQAAKLSKPTLENLTPVVLRPEIRKPEVLRPETPRPVDIGSGGFGDVGALESLRGNADLAYILSMEPCGHCLIINNVNFCRESGLRTRTGSNIDCEKLRRRFSSLHFMVEVKGDLTAKKMVLALLELAQQDHGALDCCVVVILSHGCQASHLQFPGAVYGTDGCPVSVEKIVNIFNGTSCPSLGGKPKLFFIQAAGGEQKDHGFEVASTSPEDESPGSNPEPDATPFQEGLRTFDQLDAISSLPTPSDIFVSYSTFPGFVSWRDPKSGSWYVETLDDIFEQWAHSEDLQSLLLRVANAVSVKGIYKQMPGCFNFLRKKLFFKTS
notes: FLAG tag present; also called C9

How the values were obtained:
[1] = target: T1, Wild-type human APP695 (β-amyloid precursor protein) (human, UniProt P05067-4 18-695); experiment: co-immunoprecipitation with anti-FLAG M2 from co-transfected 293T cells, western blot for APP with 5A3/1G7
T1 construct: also called full-length APP

[2] = target: T1, Wild-type human APP695 (β-amyloid …); experiment: co-immunoprecipitation with anti-FLAG M2 from co-transfected 293T cells, densitometry of the APP band
[3] = target: T2, APPΔC31 (N-terminal 664 amino acids of APP695) (human, UniProt P05067 18-664); experiment: co-immunoprecipitation (anti-FLAG M2) from co-transfected 293T cells, western blot with 5A3/1G7
T2 construct: Used both for the deletion construct and for the product of caspase cleavage of APP at Asp664; also called APPdeltaC31; C-terminal truncated APP

Binder | quantitative densitometry intensity of co-immunoprecipitated APP [1] | intensity relative to the other caspases tested [2] | binding result [3]
B1 | 1.2 |  | 
B2 | 1 |  | 
B3 | 2.2 | ~200% | no binding
B4 | 1.1 |  | 
